Data as given in US20140134183A1 (CELL MEDICA SWITZERLAND, published 2014).

molecular target: T1, recombinant human IL-1 beta (human, UniProt P01584 117-269); assay: cell-based or functional assay

IC50 of IL-1 beta-induced IL-6 release from human dermal fibroblasts [nM] | Binder
0.008 | DLX2528 (scFv) scFv: EIVMTQSPSTLSASVGDRVTITCQASQSIGNWLAWYQQKPGKAPKLLIYQASNLASGVPSRFSGSGSGTDFTLTISSLQPDDFATYYCQNAGGATTIAFGQGTKLTVLGGGGGSGGGGSGGGGSGGGGSEVQLVESGGGLVQPGGSLRLSCTASGFSLSSAAMAWVRQAPGKGLEWVGIIYDSASTYYASWAKGRFTISRDTSKNTVYLQMNSLRAEDTAVYYCARERAIFSGDFVLWGQGTLVTVSS
0.03 | DLX2547 (scFv) scFv: ADIVMTQSPSTLSASVGDRVTITCQASQSISSYLSWYQQKPGKAPKLLIYRASTLASGVPSRFSGSGSGAEFTLTISSLQPDDFATYYCQNTGGGINIAFGQGTKLEIKRGGGGSGGGGSGGGGSGGGGSEVQLVESGGGLVQPGGSLRLSCTASGFSLSSAAMAWVRQAPGKGLEWVGIIYDSASTYYASWAKGRFTISRDTSKNTVYLQMNSLRAEDTAVYYCARERAIFSGDFVLWGQGTLVTVSS
0.007 | DLX2545 (scFv) scFv: EIVMTQSPSTLSASVGDRVIITCQASQSIDNWLSWYQQKPGKAPKLLIYRASTLASGVPSRFSGSGSGAEFTLTISSLQPDDFATYYCQNTGGGVSIAFGQGTKLTVLGGGGGSGGGGSGGGGSGGGGSEVQLVESGGGLVQPGGSLRLSCTASGFSLSSAAMAWVRQAPGKGLEWIGIIYDSASTYYASWAKGRFTISRDTSKNTLYLQMNSLRAEDTAVYFCARERNIFSGDMVLWGQGTTVTVSS
0.002 | DLX2586 (scFv) scFv: EIVMTQSPSTLSASVGDRVIITCQASQSIDNWLSWYQQKPGKAPKLLIYRASTLASGVPSRFSGSGSGAEFTLTISSLQPDDFATYYCQNTGGGVSIAFGQGTKLTVLGGGGGSGGGGSGGGGSGGGGSEVQLVESGGGLVQPGGSLRLSCTVSGFSLSSYAMSWVRQAPGKGLEWIGIIYDSASTYYASWAKGRFTISKDTSKNTVYLQMNSLRAEDTAVYFCARERQIFSGDMDGWGQGTLVTVSS

molecular target: T1, recombinant human IL-1 beta; assay: cell-based or functional assay; remark: another data set of the same source

IC50 of IL-1 beta-induced IL-6 release from human dermal fibroblasts [nM] | Binder
0.09 | canakinumab IgG (Novartis, ILARIS) (antibody, V domains shown) VH: QVQLVESGGGVVQPGRSLRLSCAASGFTFSVYGMNWVRQAPGKGLEWVAIIWYDGDNQYYADSVKGRFTISRDNSKNTLYLQMNGLRAEDTAVYYCARDLRTGPFDYWGQGTLVTVSS VL: EIVLTQSPDFQSVTPKEKVTITCRASQSIGSSLHWYQQKPDQSPKLLIKYASQSFSGVPSRFSGSGSGTDFTLTINSLEAEDAAAYYCHQSSSLPFTFGPGTKVDIKR
0.0125 | DLX2693 (scFv) scFv: ADIVMTQSPSTLSASVGDRVTITCQASQSISSYLSWYQQKPGKAPKLLIYRASTLASGVPSRFSGSGSGAEFTLTISSLQPDDFATYYCQNTGGGINIAFGQGTKLEIKRGGGGSGGGGSGGGGSGGGGSEVQLVESGGGNVQPGGSLRLSCTASGFSLSNSAMAWVRQAPGKGLEWVGIIYDSASTYYASWAKGRFTISRDNSKNTVYLQMNSLRAEDTATYYCARERAIFSGDFALWGQGTLVTVSS
0.0006 | DLX2681 (scFv) scFv: EIVMTQSPSTLSASVGDRVIITCRASQSIGNWLSWYQQKPGKAPKLLIYRASNLASGVPSRFSGSGSGAEFTLTISSLQPEDFATYYCQNTGGGINIAFGQGTKLTVLGGGGGSGGGGSGGGGSGGGGSEVQLVESGGGNVQPGGSLRLSCTASGFSLSNSAMAWVRQAPGKGLEWVGIIYDSASTYYASWAKGRFTISRDNSKNTVYLQMNSLRAEDTATYYCARERAIFSGDFALWGQGTLVTVSS

molecular target: T1, recombinant human IL-1 beta; assay: cell-based or functional assay; remark: another data set of the same source

IC50 of IL-1 beta-induced IL-6 release from human dermal fibroblasts [nM] | Binder
0.002 to 0.003 | anti-human IL-1 beta monoclonal IgG antibody MAB201 (antibody, from another filing, V domains shown) VH: QVTLKESGPGILKPSQTLSLTCSFSGFSLSTSGMGVGWIRQPSGKGLEWLAHIWWDGDESYNPSLKTRLTISKNTSRNQVFLKITTVDTVDTATYFCARNRYDPPWFVDWGQGTLVTVSS VL: DIQMTQTTSSLSASLGDRVTISCRASQDISNYLSWYQQKPDGTVKLLIYYTSKLHSGVPSRFSGSGSGTDYFLTISNLEQEDIATYFCLQGKMLPWTFGGGTKLEIK

molecular target: T1, recombinant human IL-1 beta; assay: cell-based or functional assay; remark: another data set of the same source

IC50 of IL-1 beta-induced IL-6 release from human dermal fibroblasts [nM] | Binder
0.004 | DLX2464 (scFv) scFv: EIVMTQSPSTLSASVGDRVIITCQASQSIDNWLSWYQQKPGKAPKLLIYRASTLASGVPSRFSGSGSGAEFTLTISSLQPDDFATYYCQNTGGGVSIAFGQGTKLTVLGGGGGSGGGGSGGGGSGGGGSEVQLVESGGGLVQPGGSLRLSCTASGFSLSSAAMAWVRQAPGKGLEWVGIIYDSASTYYASWAKGRFTISRDTSKNTVYLQMNSLRAEDTAVYYCARERQIFSGDMAGWGQGTLVTVSS
0.004 | DLX2465 (scFv) scFv: EIVMTQSPSTLSASVGDRVIITCQASQSIDNWLSWYQQKPGKAPKLLIYRASTLASGVPSRFSGSGSGAEFTLTISSLQPDDFATYYCQNTGGGVSIAFGQGTKLTVLGGGGGSGGGGSGGGGSGGGGSEVQLVESGGGLVQPGGSLRLSCTASGFSLSSAAMAWVRQAPGKGLEWVGIIYDSASTYYASWAKGRFTISRDTSKNTVYLQMNSLRAEDTAVYYCARERNIFSGDMDLWGQGTLVTVSS
0.005 | DLX2480 (scFv) scFv: EIVMTQSPSTLSASVGDRVIITCQASQSIDNWLSWYQQKPGKAPKLLIYRASTLASGVPSRFSGSGSGAEFTLTISSLQPDDFATYYCQNTGGGINIAFGQGTKLTVLGGGGGSGGGGSGGGGSGGGGSEVQLVESGGGLVQPGGSLRLSCTASGFSLSDAAMAWVRQAPGKGLEWVGIIYDSASTYYASWAKGRFTISRDTSKNTVYLQMNSLRAEDTAVYYCARERQIFSGDFVLWGQGTLVTVSS
0.2 | DLX2475 (scFv) scFv: EIVMTQSPSTLSASVGDRVIITCQASQSIDKWLSWYQQKPGKAPKLLIYQASTLASGVPSRFSGSGSGAEFTLTISSLQPDDFATYYCQNTGGGVHIAFGQGTKLTVLGGGGGSGGGGSGGGGSGGGGSEVQLVESGGGLVQPGGSLRLSCTASGFSLSSYAMAWVRQAPGKGLEWVGIIYDSASTYYASWAKGRFTISRDTSKNTVYLQMNSLRAEDTAVYYCARERAIFSGDFKLWGQGTLVTVSS
0.3 | DLX2466 (scFv) scFv: EIVMTQSPSTLSASVGDRVIITCQASQSIGKYLSWYQQKPGKAPKLLIYRASTLASGVPSRFSGSGSGAEFTLTISSLQPDDFATYYCQNAGGGVSIAFGQGTKLTVLGGGGGSGGGGSGGGGSGGGGSEVQLVESGGGLVQPGGSLRLSCTASGFSLSSDAMAWVRQAPGKGLEWVGIIYDSASTYYASWAKGRFTISRDTSKNTVYLQMNSLRAEDTAVYYCARERNIFSGDMAGWGQGTLVTVSS
0.025 | DLX2467 (scFv) scFv: EIVMTQSPSTLSASVGDRVIITCQASQSIHNWLSWYQQKPGKAPKLLIYRASNLASGVPSRFSGSGSGAEFTLTISSLQPDDFATYYCQNTGGGSSIAFGQGTKLTVLGGGGGSGGGGSGGGGSGGGGSEVQLVESGGGLVQPGGSLRLSCTASGFSLSRAAMAWVRQAPGKGLEWVGIIYDSASTYYASWAKGRFTISRDTSKNTVYLQMNSLRAEDTAVYYCARERMIFSGDFVLWGQGTLVTVSS
0.015 | DLX2468 (scFv) scFv: EIVMTQSPSTLSASVGDRVIITCQASQSIGNYLSWYQQKPGKAPKLLIYRASTLASGVPSRFSGSGSGAEFTLTISSLQPDDFATYYCQNAGGGTSIAFGQGTKLTVLGGGGGSGGGGSGGGGSGGGGSEVQLVESGGGLVQPGGSLRLSCTASGFSLSSSAMAWVRQAPGKGLEWVGIIYDSASTYYASWAKGRFTISRDTSKNTVYLQMNSLRAEDTAVYYCARERNIFSGDMVLWGQGTLVTVSS
0.1 | DLX2476 (scFv) scFv: EIVMTQSPSTLSASVGDRVIITCQASQSISSWLSWYQQKPGKAPKLLIYRASTLASGVPSRFSGSGSGAEFTLTISSLQPDDFATYYCQNTGGGVSIAFGQGTKLTVLGGGGGSGGGGSGGGGSGGGGSEVQLVESGGGLVQPGGSLRLSCTASGFSLSSAAMAWVRQAPGKGLEWVGIIYDSASTYYASWAKGRFTISRDTSKNTVYLQMNSLRAEDTAVYYCARERDIFSGDFVGWGQGTLVTVSS

molecular target: T1, recombinant human IL-1 beta; assay: ELISA, cleared E. coli lysate on coated rhIL-1 beta
Protocol: The resulting scFv mutants are expressed in 96-well format in 1 ml cultures in E. coli BL21 (DE3) (Novagen, USA, cat. no. 69450-3). […] Cells were lysed in lysis buffer (1 mM EDTA, 0.1 mg/ml lysozyme, PBS pH 7.2) in a 96-well format by freezing and subsequent thawing. Derived crude extracts were cleared by centrifugation. Supernatants were added to wells of a microtiterplate coated with 50 ng/ml of rhIL-1 beta (Peprotech) per well. After washing, bound scFvs are detected by ProteinL-HRP and binding to rhIL-1 beta quantified by BM Blue POD Substrate (Roche Applied Science).

binding result | Binder
binds | DLX2692 (scFv, tested as cleared E. coli lysate; also called DLX2547_2530) scFv: ADIVMTQSPSTLSASVGDRVTITCQASQSISSYLSWYQQKPGKAPKLLIYRASTLASGVPSRFSGSGSGAEFTLTISSLQPDDFATYYCQNTGGGINIAFGQGTKLEIKRGGGGSGGGGSGGGGSGGGGSEVQLVESGGGNVQPGGSLRLSCTASGFSLSDAAMAWVRQAPGKGLEWVGIIYDSASTFYASWAKGRFTISRDNSKNTLYLQMNSLRAEDTATYYCARERNIFSGDMALWGQGTTVTVSS
binds | DLX2690 (scFv, tested as cleared E. coli lysate; also called DLX2544_2548) scFv: ADIVMTQSPSTLSASVGDRVTITCQASQSISSYLSWYQQKPGKAPKLLIYKASTLASGVPSRFSGSGSGTDFTLTISSLQPEDFATYYCQNAGGGINIAFGQGTKVEIKRGGGGSGGGGSGGGGSGGGGSEVQLVESGGGLVQPGGSLRLSCTVSGFSLSSYAMSWVRQAPGKGLEWIGIIYDSASTYYASWAKGRFTISKDTSKNTLYLQMNSLRAEDTAVYFCARERQIFSGDMDGWGQGTTVTVSS
